Target: T1, human VEGFC (Cat. No. Z03286, Genscript) (human, UniProt P49767 112-227, limits assumed)
T1 construct: Bought protein; also called VC
T1 sequence (looked up): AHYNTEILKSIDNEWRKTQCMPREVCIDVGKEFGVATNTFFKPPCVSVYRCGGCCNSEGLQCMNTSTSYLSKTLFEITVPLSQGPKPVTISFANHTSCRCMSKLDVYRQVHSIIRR
Assay: SPR (Biacore), protein captured on protein A chip, VEGFC as analyte, 25 C
Description: Human VEGFC (Cat. No.: Z03286-10 μg, Genscript, China) solutions with concentrations of 10, 5, 2.5, 1.25, 0.63, 0.31, 0.16, 0.08, and 0 (blank) nM were produced by diluted into a running buffer. Each analysis cycle comprises: (1) capturing the bispecific protein on flow pool 2 (Fc2), (2) injecting the VEGFC solution onto flow cells 1 and 2 (Fc1 and Fc2) at a rate of 30 μL/minute (for 120 seconds), (3) allowing 1×HBS-EP+buffer to flow at 30 μL/minute through the chip for 360 seconds to monitor the dissociation phase, (4) injecting a 10 mM glycine hydrochloride buffer, pH 1.5, to allow surface regeneration of the chip. The data was processed by Biacore™ Insight Evaluation software, using standard double reference and fitting with a 1:1 binding model, to determine the binding rate (kₐ) and dissociation rate (kd).

Kd: 0.562 nM
koff: 0.0033 s⁻¹
kon: 5.87e+06 M⁻¹ s⁻¹
B1: OPT-302 (other, not shown: a dimerising Fc or GST; small tags and cut ends)
chain: YSMTPPTLNITEESHVIDTGDSLSISCRGQHPLEWAWPGAQEAPATGDKDSEDTGVVRDCEGTDARPYCKVLLLHEVHAQDTGSYVCYYKYIKARIEGTTAASSYVFVRDFEQPFINKPDTLLVNRKDAMWVPCLVSIPGLNVTLRSQSSVLWPDGQEVVWDDRRGMLVSTPLLHDALYLQCETTWGDQDFLSNPFLVHITGNELYDIQLLPRKSLELLVGEKLVLNCTVWAEFNSGVTFDWDYPGKQAERGKWVPERRSQQTHTELSSILTIHNVSQHDLGSYVCKANNGIQRFRESTEVIVHE
notes: captured on protein A chip

From patent publication US20240343791A1 (YUANPU BIOTECHNOLOGY WUHAN, published 2024)
